Laboratory results as given in patent publication US20230416329A1, “A PEPTIDE WITH DISULFIDE BONDS AND INHIBITORY ACTIVITY AGAINST SERINE PROTEASES, DERIVED HYBRID PEPTIDES THEREOF, AND USES THEREOF” (INSTITUTE OF MATERIA MEDICA , CHINESE ACADEMY OF MEDICAL …, priority 2020, published 2023).

Tested on: P407-induced hyperlipidemia mice
Experiment: Effect of Repatha on serum TC and LDL-C in P407-induced hyperlipidemia mice (model validation)
Type: in vivo, mouse
Description: Model preparation and validation: Normal ICR mice were fasted overnight with water ad libitum. The poloxamer 407 (P407, 500 mg/kg) was intraperitoneally injected on the next day. […] The clinical drug Repatha was injected subcutaneously at a dose of 40 mg/kg for 24 hours, followed by intraperitoneal injection of P407. The serum TC and LDL-C levels were measured 24 hours after injection of P407 (Table 25).

[1] = serum, Repatha 40 mg/kg subcutaneous, 24 hours after P407 injection

B1: Repatha: the clinical (marketed) drug Repatha, positive control in the P407 hyperlipidemia model (antibody, chains of the INN, looked up, V domains shown)
VH: EVQLVQSGAEVKKPGASVKVSCKASGYTLTSYGISWVRQAPGQGLEWMGWVSFYNGNTNYAQKLQGRGTMTTDPSTSTAYMELRSLRSDDTAVYYCARGYGMDVWGQGTTVTVSS
VL: ESALTQPASVSGSPGQSITISCTGTSSDVGGYNSVSWYQQHPGKAPKLMIYEVSNRPSGVSNRFSGSKSGNTASLTISGLQAEDEADYYCNSYTSTSMVFGGGTKLTVL
serum TC and LDL-C levels (in words) (40 mg/kg s.c., P407 500 mg/kg i.p., ICR mice): significantly reduced the serum TC and LDL-C levels
LDL-C [1]: 0.364 ± 0.097 mmol/L
TC [1]: 190.0 ± 36.6 mg/dL
